Laboratory results published in publication PMC10926635, “Membrane-associated RING-CH 7 inhibits stem-like capacities of bladder cancer cells by interacting with nucleotide-binding oligomerization domain containing 1” (Cell & Bioscience, 2024).

Biological target: T1, HA-NOD1, purified protein (UniProt Q9Y239-1 1-953)
T1 construct: also called purified NOD1 protein; source: purified by Hangzhou Jingjie Biotechnology Co., Ltd
T1 sequence (looked up): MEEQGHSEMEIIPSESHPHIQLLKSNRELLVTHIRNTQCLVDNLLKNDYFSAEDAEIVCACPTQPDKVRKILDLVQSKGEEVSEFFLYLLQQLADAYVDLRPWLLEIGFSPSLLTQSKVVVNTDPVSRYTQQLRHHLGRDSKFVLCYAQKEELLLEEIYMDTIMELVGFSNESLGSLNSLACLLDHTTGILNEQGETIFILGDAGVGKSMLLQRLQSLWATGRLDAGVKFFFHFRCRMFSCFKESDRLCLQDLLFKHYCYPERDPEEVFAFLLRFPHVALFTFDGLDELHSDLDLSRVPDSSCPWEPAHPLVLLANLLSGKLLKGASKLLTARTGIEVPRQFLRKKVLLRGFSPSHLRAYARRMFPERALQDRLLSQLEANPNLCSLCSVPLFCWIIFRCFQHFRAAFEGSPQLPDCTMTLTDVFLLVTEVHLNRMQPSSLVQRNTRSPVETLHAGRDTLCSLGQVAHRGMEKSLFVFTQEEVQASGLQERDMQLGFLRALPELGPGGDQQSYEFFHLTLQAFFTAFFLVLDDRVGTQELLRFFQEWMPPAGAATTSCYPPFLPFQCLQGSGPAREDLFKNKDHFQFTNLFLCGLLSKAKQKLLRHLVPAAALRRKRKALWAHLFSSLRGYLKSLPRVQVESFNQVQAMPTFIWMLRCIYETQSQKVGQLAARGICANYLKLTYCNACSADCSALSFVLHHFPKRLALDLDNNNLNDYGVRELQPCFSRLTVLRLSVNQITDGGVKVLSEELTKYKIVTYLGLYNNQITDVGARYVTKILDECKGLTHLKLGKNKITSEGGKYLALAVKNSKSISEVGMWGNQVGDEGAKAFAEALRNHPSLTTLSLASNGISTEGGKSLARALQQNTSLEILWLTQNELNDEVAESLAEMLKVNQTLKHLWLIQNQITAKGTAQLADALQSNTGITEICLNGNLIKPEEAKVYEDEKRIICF
Experiment: co-IP; purified Flag-MARCH7 and HA-NOD1 proteins mixed; co-IP as for the cell lysates
Conditions: both partners purified

binding result: binds
B1: Flag-MARCH7-WT, purified protein (enzyme, UniProt Q9H992-1 1-704, looked up)
chain: MESKPSRIPRRISVQPSSSLSARMMSGSRGSSLNDTYHSRDSSFRLDSEYQSTSASASASPFQSAWYSESEITQGARSRSQNQQRDHDSKRPKLSCTNCTTSAGRNVGNGLNTLSDSSWRHSQVPRSSSMVLGSFGTDLMRERRDLERRTDSSISNLMDYSHRSGDFTTSSYVQDRVPSYSQGARPKENSMSTLQLNTSSTNHQLPSEHQTILSSRDSRNSLRSNFSSRESESSRSNTQPGFSYSSSRDEAPIISNSERVVSSQRPFQESSDNEGRRTTRRLLSRIASSMSSTFFSRRSSQDSLNTRSLNSENSYVSPRILTASQSRSNVPSASEVPDNRASEASQGFRFLRRRWGLSSLSHNHSSESDSENFNQESEGRNTGPWLSSSLRNRCTPLFSRRRREGRDESSRIPTSDTSSRSHIFRRESNEVVHLEAQNDPLGAAANRPQASAASSSATTGGSTSDSAQGGRNTGISGILPGSLFRFAVPPALGSNLTDNVMITVDIIPSGWNSADGKSDKTKSAPSRDPERLQKIKESLLLEDSEEEEGDLCRICQMAAASSSNLLIEPCKCTGSLQYVHQDCMKKWLQAKINSGSSLEAVTTCELCKEKLELNLEDFDIHELHRAHANEQAEYEFISSGLYLVVLLHLCEQSFSDMMGNTNEPSTRVRFINLARTLQAHMEDLETSEDDSEEDGDHNRTFDIA
notes: Membrane-associated RING-CH 7 (MARCH7); also called purified MARCH7 protein; source: purified by Hangzhou Jingjie Biotechnology Co., Ltd
